Measurements reported in article PMC8260656.

Biological target: EZH2 recombinant protein His-tagged (Epigentek, E24031-1) (human) (UniProt Q15910)
Assay: MST; labeled His-tagged EZH2 at 5 nM fixed; ERG from 0.4uM to 2.44E-05uM; incubated at room temperature for 5 min; Monolith NT.115, Premium capillaries, 30% LED excitation, high MST power

Kd: 290 nM
B1: ERG recombinant protein (Origene, TP308093) (natural protein)
chain: MASTIKEALSVVSEDQSLFECAYGTPHLAKTEMTASSSSDYGQTSKMSPRVPQQDWLSQPPARVTIKMECNPSQVNGSRNSPDECSVAKGGKMVGSPDTVGMNYGSYMEEKHMPPPNMTTNERRVIVPADPTLWSTDHVRQWLEWAVKEYGLPDVNILLFQNIDGKELCKMTKDDFQRLTPSYNADILLSHLHYLRETPLPHLTSDDVDKALQNSPRLMHARNTGGAAFIFPNTSVYPEATQRITTRPDLPYEPPRRSAWTGHGHPTPQSKAAQPSPSTVPKTEDQRPQLDPYQILGPTSSRLANPGSGQIQLWQFLLELLSDSSNSSCITWEGTNGEFKMTDPDEVARRWGERKSKPNMNYDKLSRALRYYYDKNIMTKVHGKRYAYKFDFHGIAQALQPHPPESSLYKYPSDLPYMGSYHAHPQKMNFVAPHPPALPVTSSSFFAAPNPYWNSPTGGIYPNTRLPTSHMPSHLGTYY
